This is an account of results in patent publication US10156559B2, “Lipocalin fusion partners” (Fred Hutchinson Cancer Research Center, priority 2012, dated 2018).

This series is described as follows: SDS PAGE analysis of Scn fusion protein before and after cleavage. It is filed as physicochemical. Conditions: fusion protein cleaved from Scn, expressed in mammalian cell culture. From the text: The cloned knottin or library was cotransfected into HEK293 cells and media was collected as described (“Daedalus: A Robust, Turnkey Platform for Rapid Production of Decigram Quantities of Active Recombinant Proteins in Human Cell Lines Using Novel Lentiviral Vectors.” Bandaranayake A. D., et al., Nucleic Acids Res. (2011) 39(21):e143). Fusion protein was isolated using nickel IMAC and cleaved with recombinant TEV protease. Excess siderocalin was removed via size exclusion chromatography, a process which also allowed the buffer to be switched to 10 mM ammonium formate. The knottin containing fractions were then lyophilized.
FIG. 19 depicts the expression of a Scn fusion with a cytoplasmic viral protein Adv2 and the corresponding SDS PAGE analysis according to one aspect of the present disclosure. […] Additionally this fusion protein has further utility because it can be used to raise antibodies against the viral antigen in rats, mice or rabbits using the corresponding Scn ortholog.
FIG. 21 depicts the expression of a Scn fusion with a knottin protein, Imperatoxin, and the corresponding SDS PAGE analysis according to one aspect of the present disclosure. […] Additionally, this fusion protein has further utility because it can be used to raise antibodies against the […] in rats, mice or rabbits using the corresponding Scn ortholog.

B1: Adv2: cytoplasmic viral protein Adv2 expressed as a Scn fusion and cleaved from Scn (protein, UniProt P68978 18-159, looked up)
Early E3 18.5 kDa glycoprotein: AKKVEFKEPACNVTFKSEANECTTLIKCTTEHEKLIIRHKDKIGKYAVYAIWQPGDTNDYNVTVFQGENRKTFMYKFPFYEMCDITMYMSKQYKLWPPQKCLENTGTFCSTALLITALALVCTLLYLKYKSRRSFIDEKKMP
modifications: expressed as Scn fusion, cleaved
B1: the “stability of the protein after separation from Scn” value was “stable even after separation from Scn”.

B2: HMOX1: cytoplasmic enzyme, HMOX1, expressed as a Scn fusion and cleaved from Scn (protein, UniProt P09601 1-288, looked up)
Heme oxygenase 1: MERPQPDSMPQDLSEALKEATKEVHTQAENAEFMRNFQKGQVTRDGFKLVMASLYHIYVALEEEIERNKESPVFAPVYFPEELHRKAALEQDLAFWYGPRWQEVIPYTPAMQRYVKRLHEVGRTEPELLVAHAYTRYLGDLSGGQVLKKIAQKALDLPSSGEGLAFFTFPNIASATKFKQLYRSRMNSLEMTPAVRQRVIEEAKTAFLLNIQLFEELQELLTHDTKDQSPSRAPGLRQRASNKVQDSAPVETPRGKPPLNTRSQAPLLRWVLTLSFLVATVAVGLYAM
modifications: expressed as Scn fusion, cleaved
Take B2: the “stability of the protein after separation from Scn” value is “stable even after separation from Scn”.
